{"source": "paper PMC8273494", "biological_target": "hnRNP A1 internal_change (UniProt P09651)", "sequence (P09651 other isoform, or with tags, fused parts or gaps)": "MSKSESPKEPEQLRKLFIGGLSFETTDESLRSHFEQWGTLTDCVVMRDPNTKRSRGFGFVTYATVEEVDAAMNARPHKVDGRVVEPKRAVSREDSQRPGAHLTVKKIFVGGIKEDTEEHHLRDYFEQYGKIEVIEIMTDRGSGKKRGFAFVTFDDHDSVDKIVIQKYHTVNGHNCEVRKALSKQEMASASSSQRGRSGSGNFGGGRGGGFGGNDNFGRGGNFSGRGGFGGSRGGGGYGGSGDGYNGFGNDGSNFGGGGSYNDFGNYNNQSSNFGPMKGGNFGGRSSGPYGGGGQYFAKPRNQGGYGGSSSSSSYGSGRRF", "test": "SPR", "conditions": "hnRNP A1 immobilized; very hard to regenerate; called non-special binding; phosphorothioate at all 30 linkages (stereorandom); SPR: 10 mM PBS (138 mM NaCl, 2.7 mM KCl, 10 mM Na2HPO4, 1.76 mM KH2PO4, 0.05% Tween-20), pH 7.4, 25 C, aptamer 0.39-50 nM; BLI: biotinylated aptamer on SA …"}
{"sequence": "TGTGGCGAGGTAGGTGGGGTGTGTGTGTATC [WW-20]", "values": [{"measurement": "Kd", "result": 14, "unit": "pM"}]}
